Measured values as given in the Immune Epitope Database (IEDB).

Columns and labels:
HLA-A*30:01 = assay: IEDB peptide-MHC binding, purified MHC/competitive/radioactivity; filed as Kd, often an IC50 or EC50 that approximates it; ≥ and ≤ were set here for values at or beyond the usual limits of such assays
HLA-B*08:01 = assay: as above
HLA-B*15:03 = assay: as above
HLA-A*32:01 = assay: as above
HLA-B*15:01 [1] = assay: as above
HLA-B*15:01 [2] = assay: IEDB peptide-MHC binding, purified MHC/competitive/fluorescence; ≥ and ≤ were set here for values at or beyond the usual limits of such assays
HLA-A*24:02 = assay: as above
HLA-A*31:01 = assay: IEDB peptide-MHC binding, purified MHC/competitive/fluorescence; filed as Kd, often an IC50 or EC50 that approximates it; ≥ and ≤ were set here for values at or beyond the usual limits of such assays
HLA-A*11:01 [3] = assay: IEDB peptide-MHC binding, purified MHC/direct/fluorescence; filed as Kd, often an IC50 or EC50 that approximates it; ≥ and ≤ were set here for values at or beyond the usual limits of such assays
HLA-A*03:01 [4] = assay: as above
HLA-B*58:01 = assay: IEDB peptide-MHC binding, purified MHC/competitive/radioactivity; filed as Kd, often an IC50 or EC50 that approximates it; ≥ and ≤ were set here for values at or beyond the usual limits of such assays
HLA-A*02:01 [5] = assay: IEDB peptide-MHC binding, purified MHC/competitive/fluorescence; ≥ and ≤ were set here for values at or beyond the usual limits of such assays
HLA-B*15:17 = assay: IEDB peptide-MHC binding, purified MHC/competitive/fluorescence; filed as Kd, often an IC50 or EC50 that approximates it; ≥ and ≤ were set here for values at or beyond the usual limits of such assays; conditions: source organism: Araucaria virus
HLA-B*57:01 = assay: as above
HLA-B*18:01 = assay: as above
HLA-B*46:01 = assay: as above
HLA-A*02:01 [6] = assay: as above
HLA-B*51:01 = assay: as above
HLA-B*27:03 = assay: as above
HLA-B*39:01 = assay: as above
HLA-A*69:01 = assay: as above
HLA-A*02:16 = assay: IEDB peptide-MHC binding, purified MHC/direct/fluorescence; filed as Kd, often an IC50 or EC50 that approximates it; ≥ and ≤ were set here for values at or beyond the usual limits of such assays
HLA-A*02:19 = assay: as above
HLA-A*02:12 = assay: as above
HLA-A*02:03 = assay: as above
HLA-A*26:01 = assay: as above
HLA-A*02:11 = assay: as above
HLA-A*03:01 [7] = assay: IEDB peptide-MHC binding, purified MHC/competitive/radioactivity; filed as Kd, often an IC50 or EC50 that approximates it; ≥ and ≤ were set here for values at or beyond the usual limits of such assays; conditions: source organism: Dengue virus 1 Singapore/S275/1990
HLA-A*11:01 [8] = assay: as above; conditions: source organism: Dengue virus 1 Singapore/S275/1990
HLA-A*68:02 = assay: IEDB peptide-MHC binding, purified MHC/direct/fluorescence; filed as Kd, often an IC50 or EC50 that approximates it; ≥ and ≤ were set here for values at or beyond the usual limits of such assays; conditions: source organism: Orthohantavirus andesense
HLA-B*53:01 = assay: IEDB peptide-MHC binding, purified MHC/competitive/radioactivity; filed as Kd, often an IC50 or EC50 that approximates it; ≥ and ≤ were set here for values at or beyond the usual limits of such assays
HLA-A*11:01 [9] = assay: IEDB peptide-MHC binding, purified MHC/competitive/fluorescence; ≥ and ≤ were set here for values at or beyond the usual limits of such assays; conditions: source organism: Zaire ebolavirus
HLA-B*35:01 = assay: IEDB peptide-MHC binding, purified MHC/competitive/radioactivity; filed as Kd, often an IC50 or EC50 that approximates it; ≥ and ≤ were set here for values at or beyond the usual limits of such assays; conditions: source organism: Dengue virus 1 Singapore/S275/1990
[10] = source organism: Vaccinia virus WR
[11] = source organism: Vaccinia virus Copenhagen
[12] = source organism: Sudan ebolavirus
[13] = source organism: Dengue virus 1 Singapore/S275/1990
[14] = source organism: Vaccinia virus
[15] = source organism: Influenza A virus (A/swine/Korea/S190/2004(H9N2))
[16] = source organism: Escherichia coli O157:H7
[17] = source organism: Mammarenavirus lassaense
[18] = source organism: Araucaria virus
[19] = source organism: West Nile virus
[20] = source organism: Orthohantavirus andesense
[21] = source organism: Dengue virus 1 Brazil/97-11/1997
[22] = source organism: Campylobacter jejuni
[23] = source organism: Zaire ebolavirus

Sequence: ITLTNVVNI
- Kd (HLA-A*30:01; [10]): 0.0346 µM
- Kd (HLA-B*08:01; [10]): 4.49 µM
- Kd (HLA-B*15:03; [10]): 0.0218 µM
- Kd (HLA-A*32:01; [10]): 0.0771 µM
- Kd (HLA-B*15:01 [1]; [10]): 0.0116 µM

Sequence: HVKSTLNNA
- Kd (HLA-A*30:01; [10]): 0.00115 µM
- Kd (HLA-B*08:01; [10]): 1.53 µM
- Kd (HLA-B*15:03; [10]): 0.376 µM
- Kd (HLA-A*32:01; [10]): ≥ 41.7 µM
- Kd (HLA-B*15:01 [1]; [10]): 0.366 µM

Sequence: IHFMREYWF
- Kd (HLA-A*30:01; [11]): 0.0449 µM
- Kd (HLA-B*08:01; [11]): 8.05 µM
- Kd (HLA-B*15:03; [11]): 0.222 µM
- Kd (HLA-A*32:01; [11]): 12.4 µM
- Kd (HLA-B*15:01 [1]; [11]): 6.91 µM

Sequence: AVAKYFSPL
- Kd (HLA-A*30:01; [10]): 8.98 µM
- Kd (HLA-B*08:01; [10]): 0.189 µM
- Kd (HLA-B*15:03; [10]): 0.235 µM
- Kd (HLA-A*32:01; [10]): 0.283 µM
- Kd (HLA-B*15:01 [1]; [10]): 0.016 µM

Sequence: ILAKPKETF
- IC50 (HLA-B*15:01 [2]; [12]): ≥ 102 µM
- IC50 (HLA-A*24:02; [12]): 0.5 µM

Sequence: KTFVELMRR
- Kd (HLA-A*31:01; source organism: dengue virus type 1): ≤ 0.001 µM
- Kd (HLA-A*11:01 [3]; [13]): 0.0162 µM

Sequence: FTRCAVIPF
- Kd (HLA-B*15:03; [10]): 0.0054 µM

Sequence: KSNIEETKF
- IC50 (HLA-B*15:01 [2]; [14]): ≥ 481 µM

Sequence: TTHSWIPKR
- Kd (HLA-A*31:01; source organism: Influenza A virus (A/Fort Monmouth/1/1947-mouse adapted(H1N1))): 0.0023 µM
- Kd (HLA-A*03:01 [4]; [15]): 2.83 µM
- Kd (HLA-A*11:01 [3]; [15]): 0.132 µM

Sequence: IASLPTYLSS
- Kd (HLA-B*58:01; source organism: Dengue virus 4 Philippines/H241/1956): ≥ 36.3 µM

Sequence: SMNTIKQSF
- Kd (HLA-B*08:01; [10]): 0.449 µM
- Kd (HLA-B*15:03; [10]): 0.0165 µM
- Kd (HLA-A*32:01; [10]): 0.293 µM

Sequence: VGLITCKAF
- IC50 (HLA-B*15:01 [2]; [10]): 57.3 µM
- IC50 (HLA-A*02:01 [5]; [10]): ≥ 1310 µM
- IC50 (HLA-A*24:02; [10]): 7.71 µM

Sequence: RFNVPGTWR
- Kd (HLA-A*31:01; source organism: Escherichia coli K-12): 0.00127 µM
- Kd (HLA-A*03:01 [4]; [16]): 1.92 µM
- Kd (HLA-A*11:01 [3]; [16]): ≥ 20 µM

Sequence: KLIDIALSK
- Kd (HLA-A*31:01; source organism: Lassa virus Josiah): 0.142 µM
- Kd (HLA-A*03:01 [4]; [17]): 0.639 µM
- Kd (HLA-A*11:01 [3]; [17]): 0.0012 µM

Sequence: FKAMWKYPF
- Kd (HLA-B*15:03; [10]): 0.000109 µM

Sequence: LPTNEFISF
- Kd (HLA-B*15:03; [10]): 0.0337 µM

Sequence: KEFLRYLLF
- IC50 (HLA-B*15:01 [2]; [14]): ≥ 277 µM
- IC50 (HLA-A*24:02; [14]): 0.381 µM

Sequence: GVPELGAFF
- Kd (HLA-B*15:17): ≥ 20 µM
- Kd (HLA-B*57:01; [18]): ≥ 20 µM
- Kd (HLA-B*18:01; [18]): ≥ 20 µM
- Kd (HLA-B*46:01; [18]): ≥ 20 µM
- Kd (HLA-A*02:01 [6]; [18]): ≥ 20 µM
- Kd (HLA-B*51:01; [18]): ≥ 20 µM
- Kd (HLA-B*27:03; [18]): ≥ 20 µM
- Kd (HLA-B*39:01; [18]): ≥ 20 µM
- Kd (HLA-A*69:01; [18]): ≥ 20 µM
- Kd (HLA-A*02:16; [18]): ≥ 20 µM
- Kd (HLA-A*02:19; [18]): ≥ 20 µM
- Kd (HLA-A*02:12; [18]): ≥ 20 µM
- Kd (HLA-A*02:03; [18]): ≥ 20 µM
- Kd (HLA-A*03:01 [4]; [18]): ≥ 20 µM
- Kd (HLA-A*26:01; source organism: Itapua hantavirus): 0.207 µM
- Kd (HLA-A*02:11; [18]): ≥ 20 µM

Sequence: IKYACKQIL
- Kd (HLA-A*30:01; [10]): 2.11 µM
- Kd (HLA-B*08:01; [10]): 8.67 µM
- Kd (HLA-B*15:03; [10]): 0.252 µM
- Kd (HLA-A*32:01; [10]): 10.7 µM
- Kd (HLA-B*15:01 [1]; [10]): 6.87 µM

Sequence: ASSMVNGVVK
- Kd (HLA-B*58:01; [13]): 2.79 µM
- Kd (HLA-A*03:01 [7]): 0.325 µM
- Kd (HLA-A*11:01 [8]): 0.0304 µM

Sequence: IQRTYSSSI
- Kd (HLA-B*15:03; [10]): 0.00083 µM

Sequence: GLYKSAPRR
- Kd (HLA-A*31:01; [19]): 0.197 µM
- Kd (HLA-A*11:01 [3]; [19]): ≥ 20 µM

Sequence: KLTSTETSF
- Kd (HLA-B*15:03; [10]): 0.0254 µM

Sequence: GTSGTEKEF
- IC50 (HLA-B*15:01 [2]; [14]): ≥ 401 µM
- IC50 (HLA-A*24:02; [14]): ≥ 205 µM

Sequence: QMTSTFIML
- IC50 (HLA-B*15:01 [2]; [11]): 30.2 µM
- IC50 (HLA-A*24:02; [11]): 0.224 µM

Sequence: AVEDFLAFF
- Kd (HLA-B*57:01; [20]): ≥ 20 µM
- Kd (HLA-B*18:01; [20]): ≥ 20 µM
- Kd (HLA-B*46:01; [20]): ≥ 20 µM
- Kd (HLA-A*02:01 [6]; [20]): ≥ 20 µM
- Kd (HLA-B*51:01; [20]): ≥ 20 µM
- Kd (HLA-B*27:03; [20]): ≥ 20 µM
- Kd (HLA-B*39:01; [20]): ≥ 20 µM
- Kd (HLA-A*69:01; [20]): ≥ 20 µM
- Kd (HLA-A*02:16; [20]): ≥ 20 µM
- Kd (HLA-A*02:19; [20]): ≥ 20 µM
- Kd (HLA-A*02:12; [20]): ≥ 20 µM
- Kd (HLA-A*02:03; [20]): ≥ 20 µM
- Kd (HLA-A*68:02): ≥ 20 µM
- Kd (HLA-A*03:01 [4]; [20]): ≥ 20 µM
- Kd (HLA-A*26:01; [20]): 1.39 µM
- Kd (HLA-A*02:11; [20]): ≥ 20 µM

Sequence: LLIMGQLTW
- Kd (HLA-B*53:01; [21]): 0.342 µM
- Kd (HLA-B*58:01; [21]): 0.0111 µM

Sequence: IMLEYPHFK
- Kd (HLA-A*31:01; source organism: Campylobacter jejuni subsp. jejuni NCTC 11168 = ATCC 700819): 0.0136 µM
- Kd (HLA-A*03:01 [4]; [22]): 0.0229 µM
- Kd (HLA-A*11:01 [3]; [22]): 0.0018 µM

Sequence: LSFASLFLP
- IC50 (HLA-B*15:01 [2]; [23]): ≥ 97.8 µM
- IC50 (HLA-A*02:01 [5]; [23]): 2.67 µM
- IC50 (HLA-A*24:02; [23]): 11.1 µM
- IC50 (HLA-A*11:01 [9]): ≥ 179 µM

Sequence: SVAPGTDFR
- Kd (HLA-A*31:01; source organism: Escherichia coli O157:H7 str. EDL933): 0.007 µM
- Kd (HLA-A*03:01 [4]; [16]): 0.506 µM
- Kd (HLA-A*11:01 [3]; [16]): 0.0018 µM

Sequence: IQTLNGKHF
- Kd (HLA-B*15:03; [10]): 0.0114 µM

Sequence: MASSVLLWM
- Kd (HLA-B*53:01; [13]): 0.00061 µM
- Kd (HLA-B*35:01): 0.0566 µM
- Kd (HLA-B*58:01; [13]): 0.0003 µM

Sequence: ATREGKHGK
- Kd (HLA-A*31:01; source organism: Shewanella baltica OS155): 0.0813 µM
- Kd (HLA-A*03:01 [4]; [16]): 0.301 µM
- Kd (HLA-A*11:01 [3]; [16]): 0.254 µM

Sequence: RQNRSQYLF
- Kd (HLA-B*15:03; [11]): 0.000137 µM
